Data published in patent publication US20240360228A1 (BIOLEGEND, published 2024).

Columns and labels:
[1] = target: T1, human chemokine (C-C motif) receptor 8 (CCR8) (human, UniProt P51685 1-355); assay: cell-based or functional assay
[2] = target: T1, human chemokine (C-C motif) receptor 8 …; assay: flow cytometry blocking, PBMC CCR8+ CD4+ cells; competitor PE-AB1 (its MFI is read)
Description: (§1) For blocking studies, 100 μL of the cell suspension were incubated with 10 μg purified isotype control, AB1, AB2, AB3, AB4, AB5, AB8, AB9, AB10, AB11, AB12, AB13, AB14, AB15, and Commercial ABI antibodies, or isotype control, as blocking agents.
(§2) After incubation with the blocking agent, the cells were incubated with 0.25 μg of the indicated PE-conjugated antibody plus anti-human CD4 APC or anti-human CD3 for another 15 minutes in the dark and then washed 2 times with Cell Staining Buffer, and acquired in a FACSCanto II flow cytometer (BD Biosciences); the data was analyzed using FCS Express (De Novo Software); MFI correspond to the CCR8+ CD4+ lymphocytes or CCR8+ CD3+ lymphocytes.
(§3) Percentage original MFI was calculated by dividing the MFI of samples blocked with AB1, AB2, AB3, AB4, AB5, AB6, AB7, AB8, AB9, AB10, AB11, AB12, AB13, AB14, AB15, and Commercial ABI antibodies, by the MFI of samples blocked with the corresponding isotype control. This value was subtracted from 100 to get a blocking percentage. The formula is shown below: […]

[3] = target: T1, human chemokine (C-C motif) receptor 8 …; assay: flow cytometry blocking, PBMC CCR8+ CD4+ cells; competitor PE-AB2 (its MFI is read)
Description: as §1, §2, §3

[4] = target: T1, human chemokine (C-C motif) receptor 8 …; assay: flow cytometry blocking, PBMC CCR8+ CD4+ cells; competitor PE-AB3 (its MFI is read)
Description: as §1, §2, §3

[5] = target: T1, human chemokine (C-C motif) receptor 8 …; assay: flow cytometry blocking, PBMC CCR8+ CD4+ cells; competitor PE-AB4 (its MFI is read)
Description: as §1, §2, §3

[6] = target: T1, human chemokine (C-C motif) receptor 8 …; assay: flow cytometry blocking, PBMC CCR8+ CD4+ cells; competitor PE-AB5 (its MFI is read)
Description: as §1, §2, §3

[7] = target: T1, human chemokine (C-C motif) receptor 8 …; assay: flow cytometry blocking, PBMC CCR8+ CD4+ cells; competitor PE-AB6 (its MFI is read)
Description: as §1, §2, §3

[8] = target: T1, human chemokine (C-C motif) receptor 8 …; assay: flow cytometry blocking, PBMC CCR8+ CD4+ cells; competitor PE-AB10 (its MFI is read)
Description: as §1, §2, §3

[9] = target: T1, human chemokine (C-C motif) receptor 8 …; assay: flow cytometry blocking, PBMC CCR8+ CD4+ cells; competitor PE-AB11 (its MFI is read)
Description: as §1, §2, §3

[10] = target: T1, human chemokine (C-C motif) receptor 8 …; assay: flow cytometry blocking, PBMC CCR8+ CD4+ cells; competitor PE-AB12 (its MFI is read)
Description: as §1, §2, §3

[11] = target: T1, human chemokine (C-C motif) receptor 8 …; assay: flow cytometry blocking, PBMC CCR8+ CD4+ cells; competitor PE-AB13 (its MFI is read)
Description: as §1, §2, §3

[12] = target: T1, human chemokine (C-C motif) receptor 8 …; assay: flow cytometry blocking, PBMC CCR8+ CD4+ cells; competitor PE-AB14 (its MFI is read)
Description: as §1, §2, §3

[13] = target: T1, human chemokine (C-C motif) receptor 8 …; assay: flow cytometry blocking, PBMC CCR8+ CD4+ cells; competitor PE-AB15 (its MFI is read)
Description: as §1, §2, §3

[14] = target: T1, human chemokine (C-C motif) receptor 8 …; assay: flow cytometry blocking, PBMC CCR8+ CD4+ cells; competitor PE-ABII (its MFI is read)
Description: as §1, §2, §3

T1 sequence (P51685 whole entry): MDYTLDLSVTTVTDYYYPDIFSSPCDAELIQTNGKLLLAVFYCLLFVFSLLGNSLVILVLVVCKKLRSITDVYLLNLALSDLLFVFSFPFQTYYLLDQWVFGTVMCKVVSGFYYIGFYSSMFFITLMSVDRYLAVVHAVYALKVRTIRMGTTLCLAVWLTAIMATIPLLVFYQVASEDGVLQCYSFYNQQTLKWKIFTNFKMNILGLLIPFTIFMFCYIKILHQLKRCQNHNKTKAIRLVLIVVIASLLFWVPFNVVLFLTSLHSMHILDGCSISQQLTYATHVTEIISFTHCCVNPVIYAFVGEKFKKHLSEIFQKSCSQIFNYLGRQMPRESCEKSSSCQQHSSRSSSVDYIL

Row | % hCCR8-Ba/F3 - THP-1 complexes [1] | % Blocking [2] | MFI [2] | % Blocking [3] | MFI [3] | % Blocking [4] | MFI [4] | % Blocking [5] | MFI [5] | % Blocking [6] | MFI [6] | % Blocking [7] | MFI [7] | % Blocking [8] | MFI [8] | % Blocking [9] | MFI [9] | % Blocking [10] | MFI [10] | % Blocking [11] | further results | Binder
1 | 0.97% | -39.8% | 916 | -32.6% | 888 | -23.3% | 855 | -39.4% | 951 | -29.2% | 969 | -23.3% | 966 | 28.6% | 720 | 44.4% | 501 | 43.3% | 553 | 38.4% | MFI [11]: 577; % Blocking [12]: -237%; MFI [12]: 2980; % Blocking [13]: -218%; MFI [13]: 2520; % Blocking [14]: 9.26%; MFI [14]: 1000 | AB14 (antibody, V domains shown, Hybridoma monoclonal; also called antibody 14; clone 14) VH: EVQLVESGGGLVQPKGSLKLSCAASGFTFNTYAMNWVRQAPGKGLEWVARIRSKSNNYATYYVDSVKDRFTISRDDSQSMLYLQINNLKTEDTAMYYCVRGRELGPYSAMDYWGQGTSVTVSS VL: DIVMTQAAPSVPVTPGESVSISCRSSKSLLHSNGNTYLYWFLQRPGQSPQLLIYRMSNLASGVPDRFSGSGSGTAFTLRISRVEAEDVGLYYCMQHLEYPFTFGGGTKLEIK
2 | 0.47% | -61.8% | 1060 | -45.2% | 972 | -38.4% | 961 | -41.9% | 969 | -32.8% | 995 | -26.3% | 990 | -32.5% | 1340 | 39.5% | 545 | -21.6% | 1190 | 2.16% | MFI [11]: 916; % Blocking [12]: 27.5%; MFI [12]: 642; % Blocking [13]: -0.06%; MFI [13]: 793; % Blocking [14]: 15%; MFI [14]: 942 | AB10 (antibody, V domains shown, Hybridoma monoclonal; also called antibody 10; clone 10) VH: EVQLVETGGGLVQPKGSLKLSCAVSGFTFKTNAMNWVRQAPGKGLEWVARIRSKSNKYATYYADSVKDRFTISRDDSQSMLYLQMNNLKTEDTAMYYCVRGSEMGYYYAMDYWGQGTSVTVSS VL: DIVMTQAAPSVPVTPGESVSISCRSSKSLLHSNGNTYLYWFLQRPGQSPQLLIYRMSNLASGVPDRFSGSGSGTAFTLRISRVEAEDVGVYYCMQHLEYPFTFGGGTKLEIK
